Measured values: the Human Domainome abundance scans (Beltran et al. 2025)

B1: Double-stranded RNA-binding protein Staufen homolog 1, residues 183 to 249; numbered along this chain, O95793 (parent)
chain: KSEISQVFEIALKRNLPVNFEVARESGPPHMKNFVTKVSVGEFVGEGEGKSKKISKKNAAIAVLEEL

Variants of: B1
Test: abundance fitness (aPCA) (normalised: wild type 0, dead -1); higher = more abundant; growth selection in yeast, the domain comes from the species named
Conditions: Homo sapiens

Abundance fitness: each site, then its substitutions
V18: P -0.402, Q -0.647, R -0.657, S -0.465, T -0.784, W -0.861, Y -0.739
N19: A -0.047, C 0.027, D -0.229, F -0.062, G -0.323, H 0.011, I -0.15, K 0.082, L -0.069, M -0.048, P -0.698, R 0.077, S 0.006, T 0.037, V -0.101, W -0.246, Y -0.167
F20: A -0.499, C -0.361, D -0.613, H -0.699, I -0.114, K -0.45, L -0.286, M -0.305, N -0.779, P -0.654, Q -0.657, R -0.569, S -0.429, T -0.395, W 0.036, Y -0.291
E21: A -0.059, C -0.114, D -0.105, F -0.055, G -0.165, H -0.072, I -0.204, K -0.049, L -0.133, M -0.181, N -0.226, P -1.05, Q 0.014, R -0.084, S -0.078, V -0.023, W -0.009, Y -0.172
V22: A -0.022, C -0.087, D -0.102, E -0.033, F -0.165, H -0.083, I -0.005, K 0.105, L 0.016, M -0.081, N -0.114, P 0.056, Q -0.031, R 0.069, S -0.059, T 0.034, W -0.36, Y -0.094
A23: C -0.055, D -0.108, E -0.102, F -0.121, H 0.066, I 0.011, K -0.052, L 0.008, M 0.06, P 0.021, Q -0.005, S -0.063, T 0.033, W -0.141, Y -0.086
R24: A -0.132, C -0.045, D -0.141, E -0.031, G -0.196, H -0.118, I -0.17, K 0.016, L -0.129, N -0.207, P -0.035, Q -0.085, S -0.065, T -0.085, V -0.102, W -0.256, Y -0.246
E25: A -0.081, C -0.104, G -0.075, H -0.052, I -0.141, K 0.046, L -0.083, M -0.011, P -0.209, Q 0.021, R -0.046, S 0.002, T 0.016, V -0.025, Y -0.151
S26: F -0.348, P -0.27, Q -0.337, T 0.085
G27: A -0.239, C -0.366, D -0.259, E -0.339, F -0.436, H -0.326, I -0.223, K -0.207, L -0.418, M -0.395, N -0.307, Q -0.259, S -0.267, T -0.309, V -0.457, W -0.48, Y -0.437
P28: A -0.155, C -0.157, D -0.167, E -0.153, F -0.35, G -0.111, H -0.123, I -0.322, K -0.218, M -0.303, N -0.152, Q -0.202, S -0.089, T -0.177, V -0.278, W -0.316, Y -0.342
P29: A -0.005, C -0.198, D -0.051, E -0.022, F -0.28, G 0.052, H -0.105, I -0.205, K -0.061, L -0.273, M -0.114, R -0.08, S -0.04, T -0.111, V -0.205, W -0.274, Y -0.259
H30: A -0.139, C -0.207, E -0.037, F -0.278, G -0.017, I -0.288, K 0.022, L -0.255, M -0.115, N 0.078, P -0.221, Q -0.11, R -0.077, S -0.114, V -0.353, W -0.365, Y -0.208
M31: C 0.073, D 0.199, E 0.103, F -0.263, G -0.013, H 0.079, I -0.12, K 0.104, L -0.098, N 0.083, P -0.132, Q 0.049, R 0.025, S 0.113, T 0.019, V -0.099, W -0.208, Y -0.089
K32: A -0.037, D -0.332, E -0.077, F -0.516, G 0.001, H -0.249, I -0.178, L -0.179, M -0.178, N -0.192, P -0.099, Q -0.129, R -0.052, S -0.138, T -0.118, W -0.483, Y -0.187
N33: A -0.219, C -0.163, D -0.376, E -0.269, F -0.29, G -0.221, H 0.016, I -0.117, K -0.011, L -0.072, M -0.128, P -0.386, Q -0.047, R 0.008, S -0.016, T 0.052, V -0.115, W -0.054, Y -0.255
F34: C -0.547, D -0.578, E -0.56, G -0.554, H -0.544, I -0.372, K -0.725, L -0.698, M -0.56, N -0.468, P -0.458, Q -0.447, R -0.74, S -0.54, T -0.428, V -0.541, W 0.089, Y 0.038
V35: A -0.256, D -0.511, E -0.393, F 0.033, G -0.497, H 0.029, I 0.046, K 0.048, L -0.021, M -0.083, N -0.35, P -0.502, Q -0.093, R 0.04, S -0.111, T -0.02, W -0.186, Y -0.174
T36: A -0.251, C 0.046, D -0.6, F -1.38, G -0.664, I -1.1, K -0.689, L -1.04, M -0.749, N -0.674, P -0.671, Q -0.548, R -0.768, S -0.204, V -0.684, W -1.12, Y -0.449
K37: A -0.293, C -0.251, E -0.553, F -0.58, G -0.758, H -0.292, I -0.529, L -0.311, N -0.328, P -0.756, Q -0.25, R 0.034, S -0.364, T -0.364, V -0.345, W -0.442, Y -0.681
V38: A -0.196, D -0.57, E -0.554, F -0.352, G -0.557, I -0.168, K -0.511, L -0.081, M -0.231, N -0.445, P -0.67, Q -0.704, R -0.654, S -0.46, T -0.481
